# Measurements as given in the supplement of paper PMC10724198.
# ± gives the standard deviation of the averaged measurements.
# Tested on: Saccharomyces cerevisiae
# Test: protein stability index of tFT-peptide fusion (C-terminal peptide) (PSI (0-1 scale)); higher = more stable (slower turnover)
# Details: genetic background: wild type; temperature: 30 C
# 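Note: PSI is a weighted mean of sequencing reads over stability bins, variants kept only with over 10 reads, mCherry proximal and sfGFP distal, peptide attached via GGGS linker.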
row,Sequence,protein stability index
1,PPTLPPPSPLIL,0.775 ± 0.11
2,PPTPMRAQRHPR,0.579 ± 0.01
3,PPTPPLVPPTRH,0.739 ± 0.016
4,PPTPPPLRPSFS,0.704 ± 0.023
5,PPTPPPPSGLPP,0.678 ± 0.05
6,PPTPPPRPLQLP,0.652 ± 0.0076
7,PPTRPFHLFDHL,0.716 ± 0.029
8,PPVLAVRTSLDA,0.636 ± 0.021
9,PPVSPPPSRHPL,0.719 ± 0.04
10,PPYPCRRPPPPP,0.647 ± 0.033
11,PPYPRRWAPLGP,0.6872 ± 0.0051
12,PPYSLLFHPFPF,0.699 ± 0.018
13,PQPHLLRPPPHS,0.674 ± 0.018
14,PQVSYYLLPPSS,0.711 ± 0.11
15,PQWVSIGSACCQ,0.754 ± 0.076
16,PQYGTNQGRWTG,0.705 ± 0.055
17,PRALCPSSPPSR,0.764 ± 0.12
18,PRAPRLQAPGPG,0.75233 ± 0.00055
19,PRCPVNTHPLAR,0.702 ± 0.013
20,PRGVLSCPVFAP,0.776 ± 0.029
21,PRGYCGLGRPAR,0.6305 ± 0.0013
22,PRIFPDPVFPSL,0.688 ± 0.046
23,PRKISSFESSLT,0.629 ± 0.086
24,PRLFPSSPLPFN,0.822 ± 0.018
25,PRLLSLKLSALS,0.629 ± 0.063
26,PRLPPLRPPPSP,0.7079 ± 0.0064

row,Sequence,protein stability index
1,PRLPPPSPPPLP,0.735 ± 0.01
2,PRLPTSPVPHPP,0.6473 ± 0.0033
3,PRLSGLFLAPPS,0.707 ± 0.037
4,PRLSTYPDSPGS,0.71038 ± 0.00066
5,PRLVALFEKNPD,0.6615 ± 0.0012
6,PRPCPASSPRPP,0.627 ± 0.083
7,PRPLLFPLIFTP,0.627 ± 0.026
8,PRPLTPDPPRPL,0.693 ± 0.062
9,PRPPARPPLRLL,0.719 ± 0.017
10,PRPPPPARSPPS,0.66 ± 0.06
11,PRPPPPCPPPSL,0.71 ± 0.083
12,PRPPPSQATLSP,0.637 ± 0.052
13,PRPPRAPPPLPS,0.643 ± 0.1
14,PRPPSPAPPPHP,0.69904 ± 0.00044
15,PRPPSPRAPPPH,0.631 ± 0.067
16,PRPRRFPPPLLA,0.5103 ± 0.0049
17,PRPVRPSPHPPP,0.689 ± 0.1
18,PRRPPPSPPVPP,0.532 ± 0.03
19,PRRQCIRAPCAR,0.641 ± 0.018
20,PRSLPSFHPPFH,0.658 ± 0.074
21,PRSPHPLPPTPP,0.666 ± 0.0084
22,PRSPPPPPSYSP,0.703 ± 0.13
23,PRSSLPPPPSLP,0.686 ± 0.038
24,PRTLTPVCPAPH,0.702 ± 0.015
25,PSALSEQQANGF,0.6838 ± 0.0022
26,PSAPPTPLAPSH,0.678 ± 0.028

row,Sequence,protein stability index
1,PSASPPPPARQP,0.672 ± 0.057
2,PSASRILSPPLP,0.649 ± 0.016
3,PSCCPPATLPPP,0.687 ± 0.056
4,PSCFFPFPPRPL,0.727 ± 0.04
5,PSDTSHPAWRAN,0.708 ± 0.025
6,PSFPLLPPPSLS,0.6913 ± 0.0051
7,PSFPPLPLSTPP,0.762 ± 0.063
8,PSFPRSPHTAPH,0.746 ± 0.022
9,PSFPSLLPPPPT,0.703 ± 0.025
10,PSGGRGSRWWGV,0.7348 ± 0.006
11,PSGGSQSLGRLG,0.634 ± 0.034
12,PSGPSTVLPSPL,0.6866 ± 0.0065
13,PSGSVLAEGRGP,0.678 ± 0.077
14,PSHPPPPSPTPP,0.754 ± 0.024
15,PSHTPLPPSSLS,0.763 ± 0.089
16,PSISSTSPLPRP,0.633 ± 0.039
17,PSLLPPRVCRPS,0.68 ± 0.089
18,PSLPHLPSTSSC,0.681 ± 0.023
19,PSLPLPPPPAHP,0.65 ± 0.02
20,PSLPPRPQLVHS,0.596 ± 0.017
21,PSLRLPVSVPTL,0.717 ± 0.018
22,PSNNHRPPGCAD,0.685 ± 0.023
23,PSPAAPSPPCLP,0.64 ± 0.045
24,PSPAHLPPRSPL,0.714 ± 0.2
25,PSPAPFPSSPSL,0.687 ± 0.0073
26,PSPAPLASPPRA,0.693 ± 0.042

row,Sequence,protein stability index
1,PSPAPPSPPSPP,0.679 ± 0.028
2,PSPASPTPPLVQ,0.682 ± 0.067
3,PSPATCGSSFSK,0.734 ± 0.056
4,PSPATCLCSPLP,0.7057 ± 0.0019
5,PSPFFSRPSYLS,0.718 ± 0.026
6,PSPHHHYTPPST,0.681 ± 0.0073
7,PSPHLHPPPLPP,0.641 ± 0.0047
8,PSPLPLSPLPFS,0.687 ± 0.04
9,PSPLRPSPAVPS,0.716 ± 0.064
10,PSPLRRSTPPCL,0.709 ± 0.13
11,PSPPAPPRGLLP,0.704 ± 0.03
12,PSPPDTDTPIPL,0.691 ± 0.034
13,PSPPHPPPPSPY,0.753 ± 0.097
14,PSPPLPRPLSPP,0.72 ± 0.045
15,PSPPPLGPLPAL,0.667 ± 0.037
16,PSPPPLPPLPPP,0.764 ± 0.12
17,PSPPPSSAPYPS,0.609 ± 0.077
18,PSPPRAPSTPLI,0.744 ± 0.06
19,PSPPSAKLRRTP,0.72 ± 0.057
20,PSPPSPPPAPPP,0.643 ± 0.1
21,PSPQPTRPPGPL,0.704 ± 0.039
22,PSPSLPSACARP,0.701 ± 0.012
23,PSPTPLPSPRLP,0.676 ± 0.098
24,PSPTRPPAYPRS,0.672 ± 0.11
25,PSPTTSRFAPPP,0.53 ± 0.047
26,PSRAPQGRADNT,0.69 ± 0.11

row,Sequence,protein stability index
1,PSRGPGRVAPCD,0.641 ± 0.013
2,PSRKFYSRHFPP,0.671 ± 0.028
3,PSRSPPPLPAPH,0.69 ± 0.011
4,PSRVRPLRLVLP,0.614 ± 0.033
5,PSSLATFLPWPI,0.739 ± 0.039
6,PSSPLLGPPPPD,0.677 ± 0.01
7,PSSSVICLLPPA,0.636 ± 0.04
8,PSSVRPFDPLLC,0.724 ± 0.063
9,PSTRPQYLFLPP,0.635 ± 0.016
10,PSVPLLPPAPLS,0.784 ± 0.075
11,PSVRRLPARRRT,0.626 ± 0.066
12,PSVSPLFSSPPP,0.719 ± 0.012
13,PSWPRLSFRPST,0.689 ± 0.022
14,PSYRVVVFSLPD,0.758 ± 0.063
15,PTCPAPLPPSSP,0.699 ± 0.061
16,PTETRRIGHHEG,0.661 ± 0.043
17,PTGPPPPSLGPP,0.694 ± 0.021
18,PTLHVGPGTPHA,0.705 ± 0.058
19,PTLPSRYPPPMF,0.751 ± 0.01
20,PTLPTLFPSSSL,0.7448 ± 0.0045
21,PTLSSRPPPYPR,0.642 ± 0.048
22,PTNPPLSQPPPQ,0.702 ± 0.039
23,PTPGGLIIVLGS,0.6322 ± 0.0041
24,PTPHLHPTSLPG,0.724 ± 0.1
25,PTPLCPPLAVRL,0.691 ± 0.032
26,PTPLPSPCPAPP,0.703 ± 0.025

row,Sequence,protein stability index
1,PTRRVHRTPLFP,0.778 ± 0.13
2,PTSFPAPNLPPD,0.669 ± 0.0045
3,PTSVRPPRRRPR,0.745 ± 0.089
4,PTTQVGRRTPLA,0.647 ± 0.029
5,PTVGGGLDGVGR,0.669 ± 0.063
6,PTWGRSDESKAM,0.744 ± 0.0099
7,PVASGYTMWSCV,0.693 ± 0.015
8,PVEAPVGLVCAK,0.568 ± 0.011
9,PVFPLTLPAFSS,0.815 ± 0.018
10,PVGWRGGYVGGR,0.666 ± 0.092
11,PVHFLPTPRAPL,0.686 ± 0.039
12,PVLGRFGSTFVV,0.674 ± 0.059
13,PVLGYLTRGLWL,0.721 ± 0.015
14,PVLMTHPYFASS,0.725 ± 0.0083
15,PVLPPLLPLPCL,0.644 ± 0.044
16,PVLRPPPPLSPP,0.734 ± 0.021
17,PVNQRPDGGNQD,0.764 ± 0.016
18,PVPERTSAEPPG,0.618 ± 0.038
19,PVPLSALPPLPP,0.746 ± 0.034
20,PVPMVPTYPPSP,0.736 ± 0.044
21,PVPPFDGLVPAL,0.728 ± 0.089
22,PVPPPPPPPPPL,0.667 ± 0.0059
23,PVRCSDLDLTFL,0.774 ± 0.054
24,PVRDGFSLCFVL,0.761 ± 0.14
25,PVRIQTFLFCVP,0.595 ± 0.012
26,PVRRAHPPPPRP,0.674 ± 0.014

row,Sequence,protein stability index
1,PVRVRGRGGCGG,0.684 ± 0.11
2,PVSCLGNQACYV,0.628 ± 0.073
3,PVSLPPSLRRPS,0.736 ± 0.034
4,PVTRRDVDLPPP,0.706 ± 0.039
5,PVTTYPPQRHIA,0.593 ± 0.03
6,PVVTGGFHIVGF,0.793 ± 0.078
7,PWPGSWALFCFI,0.719 ± 0.15
8,PWPPRPPPPPSL,0.694 ± 0.048
9,PWRPRMAGVDYR,0.867 ± 0.13
10,PWTSSTTSRFPS,0.727 ± 0.033
11,PYHVPTPRATNR,0.659 ± 0.026
12,PYTHDRTTSPVF,0.762 ± 0.12
13,PYWVPSKSSLSP,0.742 ± 0.068
14,QAGALTTIPTFA,0.616 ± 0.019
15,QAYGFEDISFSI,0.808 ± 0.076
16,QCYNGSSGVSNL,0.676 ± 0.028
17,QDSETYSNEAGL,0.669 ± 0.031
18,QFFVVLVSHEGR,0.63 ± 0.011
19,QFRCAIFRLSFV,0.613 ± 0.023
20,QFTFPPGTSAPV,0.66 ± 0.032
21,QGGGGGGVCGMV,0.721 ± 0.011
22,QGLSFVSVSPRP,0.795 ± 0.029
23,QGPPPTPASHGP,0.672 ± 0.026
24,QGRPPADRATAV,0.755 ± 0.029
25,QGSAGRHVRTNL,0.701 ± 0.06
26,QIISSVFEATSY,0.606 ± 0.037

row,Sequence,protein stability index
1,QKAQLISQVNTG,0.6682 ± 0.0065
2,QKDLVGSKSEYE,0.735 ± 0.058
3,QKGGGGEVGAEG,0.699 ± 0.066
4,QKIIKKIQTIVD,0.697 ± 0.027
5,QKKKKKKKRKKT,0.59 ± 0.062
6,QKKKKRKDKRTK,0.7067 ± 0.0053
7,QKPKDKKKRTKE,0.679 ± 0.05
8,QLETAIEEKNNE,0.704 ± 0.0087
9,QLFAYFLGAVIL,0.611 ± 0.023
10,QLGRVSRLVGVC,0.537 ± 0.0081
11,QLLCLFSIPRSA,0.7241 ± 0.0043
12,QLPALPPLHSSP,0.6982 ± 0.0022
13,QLVCCAKCGAVG,0.665 ± 0.035
14,QLVSNNCSLVMC,0.532 ± 0.02
15,QMGGGGEVGAEG,0.724 ± 0.009
16,QMSAATLLFSRL,0.734 ± 0.029
17,QMTSRVPIGRLY,0.696 ± 0.0035
18,QNKKKEKKQEIQ,0.7 ± 0.042
19,QPGPPPRPHVQP,0.676 ± 0.048
20,QPGTRRNNHIQV,0.704 ± 0.026
